Data as given in patent publication US11491212.

Each protein was assayed against Factor X (FX), P00742.
Factor X (FX), P00742, sequence (P00742 whole entry, looked up): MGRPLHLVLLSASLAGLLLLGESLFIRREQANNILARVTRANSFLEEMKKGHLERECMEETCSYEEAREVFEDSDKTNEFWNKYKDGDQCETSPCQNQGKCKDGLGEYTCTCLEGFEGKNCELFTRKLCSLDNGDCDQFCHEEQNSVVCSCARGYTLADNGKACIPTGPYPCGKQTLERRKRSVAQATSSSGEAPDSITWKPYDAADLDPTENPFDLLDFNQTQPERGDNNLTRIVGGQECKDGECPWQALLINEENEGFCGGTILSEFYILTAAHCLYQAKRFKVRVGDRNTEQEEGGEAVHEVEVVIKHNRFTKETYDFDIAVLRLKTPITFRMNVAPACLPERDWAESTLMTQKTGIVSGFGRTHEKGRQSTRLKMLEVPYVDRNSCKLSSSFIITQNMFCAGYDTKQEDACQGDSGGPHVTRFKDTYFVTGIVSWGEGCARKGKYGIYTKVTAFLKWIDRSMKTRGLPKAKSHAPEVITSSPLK

| Protein | % of WT kcat/KM (against Catalyst Biosciences WT FIXa), FX activation in the Xase complex [%] | KM [µM] | KM (nM) for activation of FX by FIXa in the Xase complex (FVIIIa, PC/PS vesicles, Ca2+), fluorogenic Spectrafluor FXa assay [nM] | kcat/KM for FX activation by FIXa in the Xase complex (FVIIIa, PC/PS vesicles, Ca2+), indirect fluorogenic Spectrafluor FXa assay [M⁻¹ s⁻¹] | % of WT kcat/KM (against Catalyst Biosciences WT FIXa) [%] | kcat/KM for activation of FX by FIXa in the Xase complex (FVIIIa, PC/PS vesicles, Ca2+), fluorogenic Spectrafluor FXa read-out [M⁻¹ s⁻¹] | KM (nM), FX activation by FIXa in the Xase complex (FVIIIa, PC/PS vesicles, Ca2+), indirect fluorogenic assay with Spectrafluor FXa [nM] |
| --- | --- | --- | --- | --- | --- | --- | --- |
| FIXa-D104N/K106S/Y155F/K247N/N249S/N260S (protein) chain 1: not shown chain 2: not shown | 18 | 0.0685 | 68.5 | 8.2e+06 | – | – | – |
| FIXa-Y155F/K228N/K247N/N249S (protein) chain 1: not shown chain 2: not shown | – | 0.0792 | – | – | 115 | 5.3e+07 | – |
| FIXa-Y155F/K247N/N249S/R318Y/R403E/E410N (protein) chain 1: not shown chain 2: not shown | – | 0.125 | – | – | – | – | – |
| FIXa-Y155F/R318Y/T343R/E410N (protein) chain 1: not shown chain 2: not shown | – | – | – | – | – | – | 40.3 |
| FIXa-K228N/R318Y/R338E/T343R/R403E/E410N (protein) chain 1: not shown chain 2: not shown | – | – | – | – | – | – | 40.3 |
| FIXa-A103N/N105S/K247N/N249S/R318Y/R338E/R403E/E410N (protein) chain 1: not shown chain 2: not shown | – | 0.028 | – | – | 324 | 1.5e+08 | – |
| FIXa-Y155F/R338E/R403E/E410N (protein) chain 1: not shown chain 2: not shown | – | 0.0336 | – | – | – | – | – |
| FIXa-K247N/N249S/R318Y/R403E/E410N (protein) chain 1: not shown chain 2: not shown | – | 0.111 | – | – | – | – | – |
| FIXa-R318Y/R338E/R403E/T412A (protein) chain 1: not shown chain 2: not shown | – | 0.0675 | – | – | – | – | – |
| FIXa-K228N/K247N/N249S/R318Y/R338E/T343R/R403E (protein) chain 1: not shown chain 2: not shown | – | – | – | – | – | – | 44.4 |
| FIXa-R318Y/R338E/T412A (protein) chain 1: not shown chain 2: not shown | 661 | 0.0235 | – | 3e+08 | – | – | – |
| FIXa-R318Y/T343R/E410N (protein) chain 1: not shown chain 2: not shown | – | – | – | – | – | – | 52.3 |
| FIXa-N260S/R318Y/R338E/R403E/E410N (protein) chain 1: not shown chain 2: not shown | 117 | 0.0724 | – | 5.3e+07 | – | – | – |
